In data set [1] the target is T1, LIN28A (UniProt Q9H9Z2).
T1 sequence: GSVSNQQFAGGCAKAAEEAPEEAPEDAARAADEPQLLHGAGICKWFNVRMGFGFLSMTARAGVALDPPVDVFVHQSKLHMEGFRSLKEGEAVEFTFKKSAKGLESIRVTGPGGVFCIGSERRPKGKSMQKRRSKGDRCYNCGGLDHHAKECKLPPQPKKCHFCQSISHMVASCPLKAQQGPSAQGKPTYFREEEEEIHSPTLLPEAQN
Kind of data set: EMSA. Particulars: higher-order aggregates above 50 nM. On the technique in general: Mobility shift assays separate free from complexed probe on a gel.

Data set [2] addresses T1, LIN28A. Put plainly: filter. Particulars: transition between unbound and bound at ~10 nM; aggregates retained on PES at 50 nM and above.

As a reminder, the Kd is the constant that tells how readily two partners part at equilibrium. With pre-let-7a miRNA, the Kd with LIN28A [1] was 25 nM; with LIN28A [2] it was 10 nM.

These data come from US20240336918.
